“And” between values parts separate entries of the source, which are not always exact repeats. Identical values can stand only once.

For assay [1], the target named is Catechol 1,2-dioxygenase from Pseudomonas stutzeri GOM2 (Pseudomonas stutzeri GOM2). The assay can be described thus: SEC; HiLoad 26/60 Superdex 200, 50 mM glycine-NaOH pH 8.5, no NaCl; 500 uL of protein at 20 mg/mL; mass from calibration with standard proteins.
Assay [2] has the same target. The assay can be described thus: SEC + other: dynamic light scattering; 50 mM glycine-NaOH pH 8.5 with 700 mM NaCl (seawater salinity); SEC on Superdex 200; DLS at 1 mg/mL, 40 °C.
For assay [3] the target is unchanged. Briefly: native gel or EMSA; 10% acrylamide gel under non-denaturing conditions, no SDS or reducing agents; the dimer and trimer samples from SEC mixed and loaded together.

For “Catechol 1,2-dioxygenase from Pseudomonas stutzeri GOM2 (enzyme)”, the stoichiometry N in assay [1] was 3; in assay [2] it was 2; in assay [3] it was 2 and 3.

These data come from article PMC7287156.
